Experimental data taken from patent US20060177894A1 (published 2006).
Substitutions are numbered along the chain they refer to. Names and notes keep the numbering of the source.

B1: hCG-αK91E (ligand)
chain 1: not shown
chain 2: SKEPLRPRCRPINATLAVEKEGCPVCITVNTTICAGYCPTMTRVLQGVLPALPQVVCNYRDVRFESIRLPGCPRGVNPVVSYAVALSCQCALCRRSTTDCGGPKDHPLTCDDPRFQDSSSSKAPPPSLPSPSRLPGPSDTPILPQ
notes: mature; heterodimer from COS-7 medium; also called αK91E+hCGβ
B2: hCG-αK44A (ligand)
chain 1: not shown
chain 2: B1 chain 2
notes: mature; heterodimer from COS-7 medium; also called αK44A+hCGβ
B3: αQ50C + β (ligand)
chain 1: not shown
chain 2: B1 chain 2
notes: mature; heterodimer from COS-7 medium; also called hCG-αQ50C
B4: αK91C + β (ligand)
chain 1: not shown
chain 2: B1 chain 2
notes: mature; heterodimer from COS-7 medium; also called hCG-αK91C
B5: αH90C + β (ligand)
chain 1: not shown
chain 2: B1 chain 2
notes: mature; heterodimer from COS-7 medium; also called hCG-αH90C
B6: αS43C + β (ligand)
chain 1: not shown
chain 2: B1 chain 2
notes: mature; heterodimer from COS-7 medium; also called hCG-αS43C
B7: αL48C + β (ligand)
chain 1: not shown
chain 2: B1 chain 2
notes: mature; heterodimer from COS-7 medium; also called hCG-αL48C
B8: αY88C + β (ligand)
chain 1: not shown
chain 2: B1 chain 2
notes: mature; heterodimer from COS-7 medium; also called hCG-αY88C
B9: αK45C + β (ligand)
chain 1: not shown
chain 2: B1 chain 2
notes: mature; heterodimer from COS-7 medium; also called hCG-αK45C
B10: hCG-αK91M (ligand)
chain 1: not shown
chain 2: B1 chain 2
notes: mature; heterodimer from COS-7 medium; also called αK91M+hCGβ
B11: αR42C + β (ligand)
chain 1: not shown
chain 2: B1 chain 2
notes: mature; heterodimer from COS-7 medium; also called hCG-αR42C
B12: hCG-αM47A (ligand)
chain 1: not shown
chain 2: B1 chain 2
notes: mature; heterodimer from COS-7 medium
B13: αM47C + β (ligand)
chain 1: not shown
chain 2: B1 chain 2
notes: mature; heterodimer from COS-7 medium; also called hCG-αM47C
B14: αS92C + β (ligand)
chain 1: not shown
chain 2: B1 chain 2
notes: mature; heterodimer from COS-7 medium; also called hCG-αS92C
B15: αT46C + β (ligand)
chain 1: not shown
chain 2: B1 chain 2
notes: mature; heterodimer from COS-7 medium; also called hCG-αT46C
B16: αV49C + β (ligand)
chain 1: not shown
chain 2: B1 chain 2
notes: mature; heterodimer from COS-7 medium; also called hCG-αV49C
B17: αV53C + β (ligand)
chain 1: not shown
chain 2: B1 chain 2
notes: mature; heterodimer from COS-7 medium; also called hCG-αV53C
B18: αT86C + β (ligand)
chain 1: not shown
chain 2: B1 chain 2
notes: mature; heterodimer from COS-7 medium; also called hCG-αT86C
B19: αK44C + β (ligand)
chain 1: not shown
chain 2: B1 chain 2
notes: mature; heterodimer from COS-7 medium; also called hCG-αK44C
B20: hCG-αK44E, K45Q (ligand)
alpha: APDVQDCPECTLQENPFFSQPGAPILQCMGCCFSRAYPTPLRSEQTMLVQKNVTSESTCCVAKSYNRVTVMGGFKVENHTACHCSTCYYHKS
beta: B1 chain 2
modifications: Glycosylated heterodimer secreted by COS-7 cells; no engineered intersubunit disulfide.
notes: heterodimer from COS-7 medium; also called αK44E, K45Q+hCGβ
B21: αN52C + hCGβ-S138C (ligand)
chain 1: not shown
chain 2: B1 chain 2 with S138C
notes: mature; disulfide αCys52-βCys138; lacks the αAsn52 oligosaccharide
B22: αM47C + hCGβ-S138C (ligand)
chain 1: not shown
chain 2: B1 chain 2 with S138C
notes: mature; disulfide αCys47-βCys138
B23: αS92C + hCGβ-S138C (ligand)
chain 1: not shown
chain 2: B1 chain 2 with S138C
notes: mature; disulfide αCys92-βCys138
B24: αL48C + hCGβ-S138C (ligand)
chain 1: not shown
chain 2: B1 chain 2 with S138C
notes: mature; disulfide αCys48-βCys138; also called hCGβS138C+αL48C
B25: αR42C + hCGβ-S138C (ligand)
chain 1: not shown
chain 2: B1 chain 2 with S138C
notes: mature; disulfide αCys42-βCys138
B26: αS43C + hCGβ-S138C (ligand)
chain 1: not shown
chain 2: B1 chain 2 with S138C
notes: mature; disulfide αCys43-βCys138
B27: αK44C + hCGβ-S138C (ligand)
chain 1: not shown
chain 2: B1 chain 2 with S138C
notes: mature; disulfide αCys44-βCys138
B28: αK91C + hCGβ-S138C (ligand)
chain 1: not shown
chain 2: B1 chain 2 with S138C
notes: mature; disulfide αCys91-βCys138
B29: αK45C + hCGβ-S138C (ligand)
chain 1: not shown
chain 2: B1 chain 2 with S138C
notes: mature; disulfide αCys45-βCys138
B30: αV49C + hCGβ-S138C (ligand)
chain 1: not shown
chain 2: B1 chain 2 with S138C
notes: mature; disulfide αCys49-βCys138
B31: αT46C + hCGβ-S138C (ligand)
chain 1: not shown
chain 2: B1 chain 2 with S138C
notes: mature; disulfide αCys46-βCys138
B32: αS64C/hCG-βS138C (ligand)
chain 1: not shown
chain 2: B1 chain 2 with S138C
notes: mature; disulfide αCys64-βCys138; also called hCGβS138C+αS64C
B33: αH90C + hCGβ-S138C (ligand)
chain 1: not shown
chain 2: B1 chain 2 with S138C
notes: mature; disulfide αCys90-βCys138
B34: αQ50C + hCGβ-S138C (ligand)
chain 1: not shown
chain 2: B1 chain 2 with S138C
B35: hCG-αCTδ116/135,138C + hCG β-subunit analog with cysteine in place of Asp99 (ligand)
chain 1: not shown
chain 2: B1 chain 2 with N77P, P78N, D99C
notes: also called knob at β-subunit residue 99
B36: hCG-αCTδ116/135,138C + hCG β-subunit analog with cysteine in place of Arg95 (ligand)
chain 1: not shown
chain 2: B1 chain 2 with N77P, P78N, R95C
notes: also called knob at β-subunit residue 95

These binders were tested against T1, rat lutropin receptor (LHR) (rat, UniProt P16235 27-700) (assay: LHR binding assay).
T1 construct: whole, on cells; also called LH receptor
T1 sequence (P16235 27-700): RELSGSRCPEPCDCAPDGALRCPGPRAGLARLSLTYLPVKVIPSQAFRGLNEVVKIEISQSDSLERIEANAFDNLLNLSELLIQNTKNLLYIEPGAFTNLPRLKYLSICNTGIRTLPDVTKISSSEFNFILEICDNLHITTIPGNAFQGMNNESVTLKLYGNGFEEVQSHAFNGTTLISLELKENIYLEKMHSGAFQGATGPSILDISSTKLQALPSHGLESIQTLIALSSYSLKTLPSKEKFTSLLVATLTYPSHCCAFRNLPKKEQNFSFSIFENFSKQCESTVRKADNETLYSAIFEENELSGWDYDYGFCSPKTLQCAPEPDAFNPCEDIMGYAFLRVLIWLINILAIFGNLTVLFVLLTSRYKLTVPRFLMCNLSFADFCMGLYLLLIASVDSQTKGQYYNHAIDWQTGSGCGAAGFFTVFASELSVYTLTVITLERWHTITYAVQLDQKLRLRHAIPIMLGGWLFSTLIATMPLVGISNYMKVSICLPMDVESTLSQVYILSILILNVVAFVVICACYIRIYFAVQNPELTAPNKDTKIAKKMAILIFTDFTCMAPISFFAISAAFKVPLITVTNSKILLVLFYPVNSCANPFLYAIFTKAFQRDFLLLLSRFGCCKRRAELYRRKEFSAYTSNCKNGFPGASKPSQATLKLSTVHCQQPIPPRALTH

fold lower affinity than hCG [fold] | Binder
~10 | B1

These binders were tested against T1, rat lutropin receptor (LHR) (assay: inhibition of 125I-hCG binding to CHO cells with rat LHR; from IC50; native β-subunit analog).

Receptor-Binding potency (percent hCG) | Binder
84 % of hCG | B2
81 % of hCG | B3
41 % of hCG | B4
30 % of hCG | B5
35 % of hCG | B6
4.3 % of hCG | B1
60 % of hCG | B7
141 % of hCG | B8
93 % of hCG | B9
68 % of hCG | B10
113 % of hCG | B11
83 % of hCG | B12
8.7 % of hCG | B13
100 % of hCG | B14
38 % of hCG | B15
70 % of hCG | B16
149 % of hCG | B17
95 % of hCG | B18
66 % of hCG | B19
58 % of hCG | B20

What follows are binders tested against T1, rat lutropin receptor (LHR) (assay: inhibition of 125I-hCG binding to CHO cells with rat LHR; from IC50; acid-stable hCGβ-S138C analog).

Receptor-Binding potency (percent hCG) | Binder
61 % of hCG | B21
4.1 % of hCG | B22
28 % of hCG | B23
66 % of hCG | B24
327 % of hCG | B25
17 % of hCG | B26
250 % of hCG | B27
2.2 % of hCG | B28
223 % of hCG | B29
71 % of hCG | B30
50 % of hCG | B31
89 % of hCG | B32
3.1 % of hCG | B33

What follows are binders tested against T1, rat lutropin receptor (LHR) (assay: cell-based or functional assay).

Signal transduction potency (cAMP accumulation), acid-stable analog | Signal Transduction potency (cAMP accumulation) | Binder
2.4 % of hCG |  | B22
 | 216 % of hCG | B3
 | 56 % of hCG | B4
13 % of hCG |  | B23
 | 65 % of hCG | B5
99 % of hCG |  | B24
332 % of hCG |  | B25
 | 74 % of hCG | B6
43 % of hCG |  | B26
 | 1.1 % of hCG | B1
 | 147 % of hCG | B7
 | 74 % of hCG | B8
191 % of hCG |  | B27
 | 91 % of hCG | B9
 | 66 % of hCG | B10
168 % of hCG |  | B29
 | 103 % of hCG | B11
 | 23 % of hCG | B13
99 % of hCG |  | B30
52 % of hCG |  | B31
 | 38 % of hCG | B14
 | 56 % of hCG | B15
 | 133 % of hCG | B16
 | 444 % of hCG | B18
1 % of hCG |  | B33
 | 97 % of hCG | B19
308 % of hCG |  | B34
 | 42 % of hCG | B20

What follows are binders tested against T1, rat lutropin receptor (LHR) (assay: LHR binding and signaling assays).

binding result | Binder
no binding | B35
no binding | B36
